Our source for the stoichiometry N values is publication PMC12756740, “A GH42 β‑Galactosidase from the Human Isolate Bifidobacterium breve DSM 20213: Biochemical and Transgalactosylation Properties Reveal the Potential for Galacto-oligosaccharides Synthesis” (ACS Omega, 2025).

For this assay, the target named is GH42 β-galactosidase Bbreβgal-III from Bifidobacterium breve DSM 20213 (Bifidobacterium breve DSM 20213). Description: SEC-MALS; OMNISEC multidetector GPC/SEC (RI, UV/Vis, RALS 90° + LALS 7°); 22 μL injected at 13.4 mg/mL, 0.5 mL/min, 20 °C, DPBS without Ca2+ and Mg2+; dn/dc 0.185 mL/g; oligomeric state of the enzyme.

With “GH42 β-galactosidase Bbreβgal-III from Bifidobacterium breve DSM 20213 (enzyme)”, the stoichiometry N came to 3.

A word on the stoichiometry N: it is the number of molecules, sites or subunits per partner or assembly.
